The DeepSol protein solubility set

Experiment: soluble on expression in E. coli; label from the status in PepcDB or PDB records

Sequence	soluble on expression in E. coli
MNEMTLLYSPSCWVPGKNRDEVMNDFFAGIKNAFEALKNDEKIPRKENVAYGMEENQKVDIWGDASDKLLIFIHGGYWAAGTRKDCLTPARCALNNEYAFASVGYGLSTEGRTLTETVEDVVNGVDFILKLYPNVSNVLVGGHSAGAHLAMNAVARLRNPRIRGLLLFSGCYFLEELIGTEIGTDINLTTDQAKLNSCDLSKLDGLKLDSLVILGLQEAPKLIEQNRDFVAQQGQSRIEEFPNSGHYTIMTNLLNHTSGEYLAMEKFLKNF	not soluble
MSNRKLSPDKTQPIYAPNNAFLDECVRVEIINILPLKVLRPAVKESTKYHQILASIQDVGLVEPPAVTPAPGTSGQYFLLDGHLRIEVLKDLGELKVDCLVATDDDTYSYNKRTNRLSAVQSNKMIVRAMERGVSAERLGKALGLSPQTIRQRFRLLNGICAEVVALLGDTDCPANVFNLLRQMKPLRQIEAAELMIGNKNLSVLLAKALLAATPPDQLVMIKKPSQDHQVSAESMARLERELAALQMQIKTVEEDYGPDVLHLTVIKGYLTKLLANAAVVRWLARHQPEYLKEFQSIAELTELPWADNGPEDDLQSTTAEG	not soluble
MAHHHHHHMQRHSRRGLLKYLSGVRVEYGGSAAKLLDSYLHQDAGAKHAANLPVSQRYFYIKNRNNDASLSSATGASQQHQTVQLRLGAAQMLSSSQHTSIDNLNEAHPLYYAQTSPSAAGLAAPLVLALKRLRIRQLTALQGALVPLLLKGKHVIAHSETGTGKSFGIALALANRIIRDQLNYRLHTVVLVPTEELALQYDKWLRHFGGCTSQVVQVAIDSIPLEAQLAKLHNIQPHVLVGTPQRVAEIVRLSPSILGEKLRRKVDCVVLDEADMIIHANVVYGRQQLSGANLVDRLFRNRREEVPAQLVAASATVDGVTAQTLNTWTRNDRTVRLTTSFVEHTIPPTIQFYFFGASRAYPLERCLLLSLQLICTQRPDARILIFTEDERVAEVCTLLTSAEVEGEMRRIAPGALSSTKVFAGALHALPRSIPSADNKESHGPDNPVSHRRVPLTTATQQAAPFSAIRGSGNVYEDVRAHQVIRQHGDVYVKNNSSLSRLNEGKLVVGVGSFNSSRGLHVNGITHVILYGACPSAACFVHCAGRTGRMGAEGDVLVLYPPSSGRQVQQVCSSLEVPFHSSRMSAVEDLLRSGEARTTESAAGAVTESASGAAADNT	not soluble
MSLPWLHRETARSFGGAGSTAGYEQVTAYTLTGQLQSRHLNLPQLDCDYDWNDNGQLIRISGPQESREYRYSDTGRLTGVHTTAANLDIDIPYATDPAGNRLPDPELHPDSTLTAWPDNRIAEDAHYVYRYDEYGRLTEKTDRIPEGVIRMHDERTHHYHYDNQHRLVFYTRIQYGEPLVESRYLYDPLGRRTGKRVWRRERDLTGWMSLSRKPEVTWYGWDGDRLTTVQTGTTRIQTVYRPGSFTPLIRIETENGEREKAQRRSLAEKLQQEGSEDGHGVVFPAELVRMLDRLEEEIRADRVSSESRAWLAQCGLTVEQLEKQVEPEYTPARTLHLYHCDHRGLPLALISEDGNTAWSAEYDEWGNQLNEENPHHLHQPYRLPGQQHDEESGLYYNRHRYYDPLQGRYITPDPIGLRGGWNMYQYPLNPIQVIDPMGLDAIENMTSGGLIYAVSGVPGLIVANSITNSAYQFGYDMDAIVGGAHNGAADAMRYCYLMCRMTKTEGHHHHHH	soluble
MQVSDLFIREMPSDCLPRERLLAIGEKALSNQELLAILLRTGSKEADVMTVAATLLKQFKQLSYLQQATLNELMAIKGIGQVKAIELRAAIELGCRIYQSSQIKFGKVTSSQQVAQRLLQEMKGLQQEHLICIYLNTKNDIIQQKTIFKGSLNQSIAHPREIFREAVKYSSARILLAHNHPSGNPTPSPQDIQFTKRMEECGEMMGIQLLDHIILGDSGYISLREENFFASE	not soluble
MGSDKIHHHHHHMKILVYGINYSPELTGIGKYTGEMVAWMAQEGHEVRVITAPPYYPQWKVGERYSAWRYRREEGEATVWRCPLYVPKQPSTLKRLLHLGSFALSSFFPLMAQRRWKPDRIIGVVPTLFCTPGMRLLATLSGARTVLHIQDYEVDAMLGLGMAGKGKRGSVARLATAFERSALRNVDNVSTISRSMMNKAREKGVAAEKILFFPNWSEVARFQDVNDADVTALRQQLGLPEGKKIVLYSGNIGEKQGLEKVIDAAERLRDRPLIFAIVGQGGGKARLENMARERGLANIKFLPLQPYDALPALLKMGDCHLVVQKRGAADAVLPSKLTNILAVGGNAVITAEPHTELGQLCARYPGIAVCVEPESTDALVNGISQALAMPKNNTTAREYAERTLNKENVLRQFIADIRG	not soluble
MGLPCYHMQEVIMNKANKGHLDFWRKVANSPPGSQHDWNRVFANYTATVDNPGCCVWKELLAAYPDAKVLLTLHPRGAEAWYESTIDTIYFTENVWQFKILEWLTPFGWKFGDMSRKLIWGRTLDGVMNDRAKAVARYNTYVEQVKAAVPPHKLLVYKVTEGWAPLCDFLGLEHHHHHH	not soluble
AGMDVRESISLQNQVSMNLAKHVITTVSQNSNVIFSPASINVVLSIIAAGSAGATKDQILSFLKFSSTDQLNSFSSEIVSAVLADGSANGGPKLSVANGAWIDKSLSFKPSFKQLLEDSYKAASNQADFQSKAVEVIAEVNSWAEKETNGLITEVLPEGSADSMTKLIFANALYFKGTWNEKFDESLTQEGEFHLLDGNKVTAPFMTSKKKQYVSAYDGFKVLGLPYLQGQDKRQFSMYFYLPDANNGLSDLLDKIVSTPGFLDNHIPRRQVKVREFKIPKFKFSFGFDASNVLKGLGLTSPFSGEEGLTEMVESPEMGKNLCVSNIFHKACIEVNEEGTEAAAASAGVIKLRGLLMEEDEIDFVADHPFLLVVTENITGVVLFIGQVVDPLH	soluble
MKSVKEIRKSQVNSMISDQYEIFHVKDMVSPEKTIYHYHDFYEVHCTLKGVATFFLDGHQFDVEAGTVLLIHYHDLHRIIKQSTDDFERMYIFLTPDFLQQRSSKRTNLSACFQHFGQRRSKVIKVDVAKLANYLTPLDHSPLPEEYGADVRYEQQLLDFLIYLNQLVLKEENESQPKQMIENER	not soluble
MENAGKATSLQSSRDLFHRLMSENSSGGWEKSWEAGATPWDLGKPTPVIAHLVETGSLPNGRALVPGCGTGYDVVAMASPDRHVVGLDISKTAVERSTKKFSTLPNAKYFSFLSEDFFTWEPAEKFDLIFDYTFFCAFEPGVRPLWAQRMEKLLKPGGELITLMFPIDERSGGPPYEVSVSEYEKVLIPLGFEAISIVDNELAVGPRKGMEKLGRWKKSSTFHSTL	soluble
YKIEKEQRLGLIPQREGNYEKNKNVLESATVKINYYSSKATSGQAGAAASAAFAKNNNTSDNTQQNQTSSVEAKSVNVTKHSFVQALKKVGFSGSNPLHFNMKLGNSSLSANGVDYYNAVKQALTELG	not soluble
MGSDKIHHHHHHMAYGGRITLNVRIALVGEELEIRENVNIEIEEGIITHIGNGFSSEGITFKNGILIPGIVNAHVHSADFICQEMGYNMPISKVVGDPHSVKYECFAKNTKESIMNSIERFVLRARELGSNVMIDFREQGLEGSLISSTIKKKMATNGVKYYFLGRLEEDEFKDIRNLNSLYKIADGYGLSSAFSTSEIELIKHVFNNKIRSVHVSETIKHWLRDDLEYVMKRYEPNLIIHGTYLSEEEIDIMRYRKASIVYCPRSNLWFSVGIPKVINGLKSGVNLLIGTDNGGVLDPDMWKEMETLLLISRVQDPLSDHSLQILKASTINAYKFLGIRGWIEEGNPIEAGLLVLEGDSTGILNSNNKYIGIIKRGNKIIYNLGAIQKII	not soluble
MMKVLAFDTSSKALSVAVLNNMECLATVTINIKKNHSINLMPAIDFLMQSIDLEPQDLDRIVVAEGPGSYTGLRVAVATAKMLAYTLKIDLVGVSSLYALTNGFSENDLLVPLIDARRNNVYVGFYQNGDTVKPDCHTSLEEVLQEVGNKANVHFVGEVAAFFDQIKKALPHAKITETLPCAVAIGRKGQKMKSVNVDAFVPRYLKRVEAEENWLKNHCETNTEEYIKRVLEHHHHHH	not soluble
MDDVLRRNPLFAALDDEQSAELRASMSEVTLARGDTLFHEGDPGDRLYVVTEGKVKLHRTSPDGRENMLAVVGPSELIGELSLFDPGPRTATGTALTEVKLLALGHGDLQPWLNVRPEVATALLRAVARRLRKTNDAMSDLVFSD	soluble
MTEAEDFAQLLQKLQNASPALPEGTSSTPTPSSSTGLLPNGKKTKGRVKIKMEYINNKLRRYTTFSKRKTGIMKKAFELSTLTGTQVMLLVASETGHVYTYATPKLQPMISSDTGKAMIQSCLNAPGGDGSDVQPSRTEFTFDSGNGGNGMRKRKMLSDVMSAESSNNSPSMPNFTPFLAPSMAPLFSTFGEDDYNNDESGDDSDSEEASSDIKEEYQGSPTMVKQETTEIDSVTASLQQRIKEAMRQAASNKQAIKKAKITPPSSNMNNAAFLNPFLLQGGANASNLLATAARKGDDAGSLTSNPFLSMGLNLQQLIESAAIASNE	not soluble
MAGHSKWANIKHRKAAQDAQRGKIFTKLIRELVTAAKIGGGDVSANPRLRAAVDKALSNNMTRDTINRAIDRGVGGGDDTNMETKIYEGYGPGGTAVMVECLSDNANRTISQVRPSFTKCGGNLGTEGSVGYLFSKKGLILIAEADEDALTEAAIEAGADDIQPQDDGSFEIYTAWEDLGSVRDGIEAAGFKVQEAEVTMIPSTTVDLDIETAPKLLRLIDMLEDCDDVQNVYHNGEICDEVASQL	not soluble
MGSDKIHHHHHHMNLQGLLLFDIDGVIRDVAASYRRAIQETVHHYSGWRPSVAEIDALKTEGIWNNDWDASLELLRRDQKSRNQALELPSREQLIEVFSRFYFGGDPNGDPSNWQGFIRNEPLLVNHRFFEELSSLGFAWGFVSGAEPPSARFVLEQRLGLKHPTLIAMGEAPDKPDPTGLLQLASQLAGRRLGQGVPTVAYLGDTVADVRTVINARQQQPEQQWMSLAVAPPHLHGIEQQEARNAYEDRLKQAGADHILSCTTDAIETLKNW	not soluble
MEASSSAQAKIADMREKLGREVRVFETSSISQRPSQVSSADDESDDFYEFTPADFYRLLATKKEDKSLKTRKIREAEEAARRSKLTKAVIRVRFPDNHTLEATFHPSEKIQGLIDLVKRVVAHPDVPFYLYTTPPKKQIKDFSQDFYSAGFVPGAIVYFSNDQPKDDGGSSTPYLNEEILSLKDLEAMTKAVEPVESSSEPATVDSSAVPVEHERKSTEKKTTKPKWFKM	soluble
MGSDKIHHHHHHMQKSLEKCSAIDYLIVLGGRHVNETIYLADERKRLPSLVKHHRASPGRLIRECEIPPLFDVIISGEAEKLIAEIGELFSRCNQSPATFIAENLDMKTEGRWIADFPRIDNTLVSDGVPLKRDELPSVVGTFGVTASFDVFEGRMTSHIFSDTGPGCIYDCNFCSERRSIAGNIQDIQGAPRRLYNQLNETVSAVMQDHPSKGASAFVEDSIFLSGSPVAITQLCQLLEKAPLEVIFGGQFTIDQILRKKDLIQRLAKCGLRYIFIGLETLEPQEIGGMSKDVDGNKQTWKDRFLQALDFMAANHIDCGCALLFGLGEAHISRRNLLNGLIKLKQETGQPITLSANWAVRHPLRSSRESENENYLRRGTPEGELLEYFHRFGEASLEYPLPNVCAPQVGEVKEIILLLNEFEASDA	not soluble
MVKLHLKTTCREVPIEEIISTGQIQFFKHLSESTSEFKDQKNVERFRLIYNGRALNEESLKKITDADSIRVVLLPPLKTNNHIEEEQKNRISIALKECTAPYTRPNDRRLHGFNHDFALPDHMTTLLEKHPQLVHDNQFLSVLSDWSLFRAYCVQNDFKDDPIRGQFMYTNPDFLKVVENILSTVGSRYGYENLDYANVERNRPGMLAAQRPIGGAQPVTHALLQNALQAALANIAVPPANRVPAPANVQPAQQQQEEPMQQGYEQQAATLREFGFENDELIQLALEQANGDVQAAMEFLIDLQN	not soluble
